Laboratory results as given in article PMC4960556.

Target: prostate-specific membrane antigen (PSMA) (UniProt Q04609)
Experiment: confocal microscopy on cells (binding and internalization)
Settings: 2'-F pyrimidines (stated for PSEP; implied), Flow binding: 50 nM Cy3-RNA on trypsinized, PBS-washed cells, 300 ug/ml yeast tRNA, 30 min, 37 C, internalization: 100 nM in RPMI 1640 + 5% FBS

Chain of UniProt Q04609 (Q04609 whole entry): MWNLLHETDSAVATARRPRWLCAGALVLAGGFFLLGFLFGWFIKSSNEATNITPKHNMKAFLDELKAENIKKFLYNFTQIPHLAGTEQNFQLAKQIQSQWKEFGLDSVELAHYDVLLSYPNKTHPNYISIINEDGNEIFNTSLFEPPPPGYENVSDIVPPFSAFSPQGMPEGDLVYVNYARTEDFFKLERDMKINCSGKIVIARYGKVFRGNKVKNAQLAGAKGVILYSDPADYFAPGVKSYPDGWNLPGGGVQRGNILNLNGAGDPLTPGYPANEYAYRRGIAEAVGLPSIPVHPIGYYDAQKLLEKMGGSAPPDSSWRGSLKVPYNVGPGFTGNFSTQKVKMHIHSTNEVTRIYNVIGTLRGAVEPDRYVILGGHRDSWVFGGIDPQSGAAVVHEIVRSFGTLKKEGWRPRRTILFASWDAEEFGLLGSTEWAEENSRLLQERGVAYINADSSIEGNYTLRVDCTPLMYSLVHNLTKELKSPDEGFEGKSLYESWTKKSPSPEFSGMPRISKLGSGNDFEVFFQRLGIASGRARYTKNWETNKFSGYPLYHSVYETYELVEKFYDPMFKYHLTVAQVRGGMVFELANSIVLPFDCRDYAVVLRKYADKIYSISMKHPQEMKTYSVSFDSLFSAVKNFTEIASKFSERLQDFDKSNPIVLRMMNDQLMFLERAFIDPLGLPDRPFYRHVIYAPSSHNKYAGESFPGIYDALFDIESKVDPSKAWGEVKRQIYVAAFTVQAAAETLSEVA

With “GGGAGGACGAUGCGGAUCAGCCAUGUUUACGUCACUCCUAAAAUGUAGAGAUGCGGUGGUCCUU / GGAUCCCGACUGGCGAGAGCCAGGUAACGAAUGGAUCCAAAAACCUUAGCAGUCUUAUCUAAUUUUGGACCACCGCAUCUCUACAUU / UUAGAUAAGACUGCUAAGGCA [PSEM (monovalent: one PSMA aptamer, one MG aptamer)]” the binding signal (fraction of PSEP fluorescence) was 0.5.
